Reference: the supplement of paper PMC9170038

Tested on: MS2 coat protein
Assay: apparent KD of MS2 coat protein; designed switch direction (-1 OFF switch, 1 ON switch): -1; higher = weaker reporter binding
Summary of the method: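 The reported apparent KD is a per-design median over clusters, from curve fits of normalised cluster fluorescence. Protein titrations used SNAP-549-labelled MS2 coat protein, doubled from 0.7 or 1.5 nM to 3 µM, in Tris-HCl pH 7.5 buffer with KCl, MgCl2, BSA, DTT, tRNA and Tween-20, with no input, 200 uM small-molecule ligand, or an oligonucleotide input. The RNA switches were transcribed on Illumina chips by stalled E. coli RNA polymerase.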

[1] = Eterna round: R95, input ligand: microRNA oligo, concentration not stated
[2] = Eterna round: R95, input ligand: FMN 200 uM
[3] = Eterna round: R95, input ligand: none
[4] = input ligand: microRNA oligo, concentration not stated

## UAUUAGCAAGCGAGAUCCUACAUGAGGAUCACCCAUGUGCUCGUCUUGUAAGGUACUGUGACGAAAGUCACGGUACC [Eli 91 v38] (Eterna round: R97, puzzle: Sensor, turn-off variant 1)
Input ligand: FMN 200 uM
  apparent KD of MS2 coat protein: 16.5 nM
Input ligand: none
  apparent KD of MS2 coat protein: 15.6 nM

## GCUGGACAUGAGGAUCACCCAUGUGAGGAUAUCGGCUGGUACGUGUUGGCUGGCAUCUCGAGAAGGCACAUAGU [Exclusion 1 V63] (puzzle: Exclusion 1)
[1]
  apparent KD of MS2 coat protein: 28.2 nM

## UCAAUACGGAAGGAUAUGCCGAAGCAUGCGCAGGCAGAAGGUCUGACAUGAGGAUCACCCAUGUUGGAGAUCAA [Eternabot (L2) Solution 21] (Eterna round: R97, puzzle: Exclusion 6)
Input ligand: FMN 200 uM
  apparent KD of MS2 coat protein: 82.1 nM
Input ligand: none
  apparent KD of MS2 coat protein: 19.1 nM

## GAAAAGGUAGGAUAUACGAAAAAAAAGGGUAGAAAGAAAACACAUGAGGAUCACCCAUGUAGAAGGACCAAAAG [salish99_ex2_r3_017] (puzzle: Exclusion 2)
[2]
  apparent KD of MS2 coat protein: 66.1 nM
[1]
  apparent KD of MS2 coat protein: 27.3 nM
[3]
  apparent KD of MS2 coat protein: 20.7 nM

## CAGUACUGAGGAUAUACAUGAGGAUCACCCAUGUGUUCCAGCUAGGAAACUAGCGAAAGUAGAAGGCAGUACUG [salish99_ex3_r3_068] (puzzle: Exclusion 3)
[1]
  apparent KD of MS2 coat protein: 22.9 nM

## GCAAGCUUUAUCACUAUGAACAUGAGGAUCACCCAUGUAUAAGGUAUUACUUUUGGGCUCUUUAGUGCUCGUCUUAU [JR_STOV1_Sub033] (Eterna round: R97, puzzle: Sensor, turn-off variant 1)
Input ligand: FMN 200 uM
  apparent KD of MS2 coat protein: 26.2 nM
Input ligand: none
  apparent KD of MS2 coat protein: 26.7 nM

## GGUGGACAUGAGGAUCACCCAUGUGAGGAUAUCGGCCGGUUCGUGGUGGCUGGCGUCUCGAGAAGGCACAUAGU [Exclusion 1 V69] (puzzle: Exclusion 1)
[1]
  apparent KD of MS2 coat protein: 114 nM

## AAACUGCAUGUGAGGAUAUGCACCGGCUAAACCGGGCAGAAGGCACAUGAGGAUCACCCAUGUCAUCCUAUUGC [Esleisus] (puzzle: Brourd's mod of Exclusion 4)
[1]
  apparent KD of MS2 coat protein: 9.01 nM

## AAAAUGCAAGGAUAUACAUAGAUCCGACCUACUUAAAACAAACAUGAGGAUCACCCAUGUAGAAGGUGCCAAAA [Raxerebiti] (puzzle: Exclusion 2)
[2]
  apparent KD of MS2 coat protein: 44.9 nM
[1]
  apparent KD of MS2 coat protein: 23.7 nM
[3]
  apparent KD of MS2 coat protein: 25.5 nM

## AAGAAACAUGAGGAUCACCCAUGUGAGGAUAUGUAAAAGAAAAGAAAAGAAAGAAGAAACAGAAGGCACAAAGG [Mat - Mod of Hog D12] (puzzle: Exclusion 1)
[2]
  apparent KD of MS2 coat protein: 82 nM
[1]
  apparent KD of MS2 coat protein: 50.7 nM
[3]
  apparent KD of MS2 coat protein: 45.2 nM

## CGGUGUAGAGGAUAUACGUGAAUAUAAGAACAUAAUAAUUAACAUGAGGAUCACCCAUGUAGAAGGCUAUAGCG [JR_Ex2_Sub081] (Eterna round: R97, puzzle: Exclusion 2)
Input ligand: FMN 200 uM
  apparent KD of MS2 coat protein: 34.3 nM
Input ligand: none
  apparent KD of MS2 coat protein: 16.7 nM

## UCGGCGCGAGGAUAUACGUUUGCGCGUUUUCGUUUGCGCGUACAUGAGGAUCACCCAUGUAGAAGGCGCGCCGC [Apr-15 SS2-14] (puzzle: Exclusion 2)
[1]
  apparent KD of MS2 coat protein: 13.2 nM

## AAUUCACAUGAGGAUCACCCAUGUCAGGAUAUGGUUUCACGUGUUUCUGUGCUUGAGGCCAGAAGGGACAGCUA (puzzle: Exclusion 1)
[1]
  apparent KD of MS2 coat protein: 50.3 nM

## UUUUAGUCAGGAUAUACAUGAGGAUCACCCAUGUAAAAUUUUAAUUUAAUUUGAAGGUGUAGAAGGGACAAUUU [Ex3 #39] (Eterna round: R97, puzzle: Exclusion 3)
Input ligand: FMN 200 uM
  apparent KD of MS2 coat protein: 22.7 nM
Input ligand: none
  apparent KD of MS2 coat protein: 35.8 nM

## GAUUUUCAUGUAGGAUAUUCCACACAACAACUGGGAGAAGGACAUGAGGAUCACCCAUGUCCUACAACAACUUCAACAAACACA [Weak Sauce] (Eterna round: R96, puzzle: Exclusion NG 1)
Input ligand: FMN 200 uM
  apparent KD of MS2 coat protein: 15.8 nM
[4]
  apparent KD of MS2 coat protein: 9.75 nM
Input ligand: none
  apparent KD of MS2 coat protein: 11.4 nM

## ACAUGAGGAUCACCCAUGUGCACGUAAUGGCUCAUGUAGAGAGAGGAUAUGUGUGACGAACGAGCACAGAAGGCUCAAGACUGG [Deportation 14 - Jieux - Exclusion NG 3] (Eterna round: R96, puzzle: Exclusion NG 3)
Input ligand: FMN 200 uM
  apparent KD of MS2 coat protein: 202 nM
[4]
  apparent KD of MS2 coat protein: 133 nM
Input ligand: none
  apparent KD of MS2 coat protein: 179 nM

## UAUUAGCAAGCAAGAUCCCACAUGAGGAUCACCCAUGUGCUCGUCUUAUAAGGUACUGUGACGAAAGUCACGGUACC [Sensor 3, v1 - 95 v2] (Eterna round: R97, puzzle: Sensor, turn-off variant 1)
Input ligand: FMN 200 uM
  apparent KD of MS2 coat protein: 52.5 nM
Input ligand: none
  apparent KD of MS2 coat protein: 45.4 nM

## AAGACACAUGAGGAUCACCCAUGUGAGGAUAUUUGAUGCGUACCUACAGGACUGCGAUAAAGAAGGCAUAAGGG [Eternabot (L2) Solution 80] (Eterna round: R97, puzzle: Exclusion 1)
Input ligand: FMN 200 uM
  apparent KD of MS2 coat protein: 50.3 nM
Input ligand: none
  apparent KD of MS2 coat protein: 17.7 nM

## AAGGGUACUUUCGGAACGACAUGAGGAUCACCCAUGUAUACUGAGGAUAUCUACUACUAAGGACGGGAGAAGGCAGUGUAAUGU [Ex NG3 #77] (Eterna round: R96, puzzle: Exclusion NG 3)
[4]
  apparent KD of MS2 coat protein: 13.6 nM

## UUUCUUGGGCAAGGAUAUCCUGUGCGGUUCCGGCUCGUGUCUGUCACAUGAGGAUCACCCAUGUGGGAGAAGGUGCCUGCGGUC [Design 82] (Eterna round: R96, puzzle: Exclusion NG 2)
Input ligand: FMN 200 uM
  apparent KD of MS2 coat protein: 14.4 nM
[4]
  apparent KD of MS2 coat protein: 11.2 nM
Input ligand: none
  apparent KD of MS2 coat protein: 14.9 nM

## AGUAACUCAAGAGGAUAUCACAUGAGGAUCACCCAUGUAUAGCGCGCUGCGCUAGUCCUCGUAUUUGAGAAGGUUUGAUAAAUG [Riausve] (Eterna round: R96, puzzle: Exclusion NG 2)
Input ligand: FMN 200 uM
  apparent KD of MS2 coat protein: 13 nM
[4]
  apparent KD of MS2 coat protein: 10.8 nM
Input ligand: none
  apparent KD of MS2 coat protein: 15.7 nM

## GAUCCACAUGAGGAUCACCCAUGUUAGGAUAUUCAGCCUUGGUCACGGGAGUCAGGGCGGAGAAGGAACCCUUU [Eternabot (L2) Solution 16] (Eterna round: R97, puzzle: Exclusion 1)
Input ligand: FMN 200 uM
  apparent KD of MS2 coat protein: 14.4 nM
Input ligand: none
  apparent KD of MS2 coat protein: 13 nM

## GGUUGGCGAGGAUAUACAUGAGGAUCACCCAUGUGGUCCUGUGGAAAAAAAAACCUUUGUAGAAGGCGCGGGUC [salish99_ex3_r4_032] (Eterna round: R97, puzzle: Exclusion 3)
Input ligand: FMN 200 uM
  apparent KD of MS2 coat protein: 415 nM
Input ligand: none
  apparent KD of MS2 coat protein: 534 nM

## UUUAAUUUUUUUUUUUUACAAGCUUUUUGCUCGUCUUAUACAUGAGGAUCACCCAUGUGGGUGGAGGAUAAAUUAUC [JMF 35] (puzzle: Sensor v3, turn-off variant 2)
[2]
  apparent KD of MS2 coat protein: 60.6 nM
[1]
  apparent KD of MS2 coat protein: 45.4 nM
[3]
  apparent KD of MS2 coat protein: 93.9 nM

## AAACAACAUGAGGAUCACCCAUGUAAGGAUAUGCGAGUUGGGUCAACGAAGGUUGAAGGCAGAAGGUAUAGGGU [Erxevees] (puzzle: Exclusion 1)
[1]
  apparent KD of MS2 coat protein: 49.3 nM

## UAAAGUAUAUAGGAUAUCUAGCUGGAAACAGCUAGAGAAGGAUGUACAUGAGGAUCACCCAUGUAAAUCGUGAA [Ex6/13-A1] (Eterna round: R97, puzzle: Exclusion 6)
Input ligand: FMN 200 uM
  apparent KD of MS2 coat protein: 16.2 nM
Input ligand: none
  apparent KD of MS2 coat protein: 13 nM

## UAUAUAUAGUAAGGAUAUGUAAUCAUUUUAUAAACAGAAGGUACUGACAUGAGGAUCACCCAUGUUUUAGUGUGGGCAUGUAGA [JMF's solution 31] (Eterna round: R96, puzzle: Exclusion NG 1)
[4]
  apparent KD of MS2 coat protein: 64.6 nM

## AAUAACAAGCCGAUCCUUCACAUGAGGAUCACCCAUGUGUUCGUCUUGUAAAGUACUAUCACGAAAGUGAUAGUACA (Eterna round: R97, puzzle: Sensor, turn-off variant 1)
Input ligand: FMN 200 uM
  apparent KD of MS2 coat protein: 18 nM
Input ligand: none
  apparent KD of MS2 coat protein: 19.1 nM

## UCAGUUCUGCAAGGAUAUCGUCCUAGUUUGGUACGAGAAGGUGCUUUUGUUUUUUCCUUGUGUUGACAUGAGGAUCACCCAUGU [JL JR Sub53 mod] (Eterna round: R96, puzzle: Exclusion NG 1)
[4]
  apparent KD of MS2 coat protein: 28.4 nM

## AACCGCAUAGGAUAUCGAGCAGAGGACUUGAGGAUCACCCAAGUCCUUGAGUUCUUUGUCCGAGAAGGAUGAACAU [Ususrace] (Eterna round: R97, puzzle: Exclusion 5)
Input ligand: FMN 200 uM
  apparent KD of MS2 coat protein: 13.7 nM
Input ligand: none
  apparent KD of MS2 coat protein: 14.6 nM

## AUUAUAUAGUCAGGAUAUAGAAUAUUAUUUUAACAUGAGGAUCACCCAUGUAACCUUAUGUGUAGCUAGAAGGGACAUUUAUUA [Title] (Eterna round: R96, puzzle: Exclusion NG 2)
[4]
  apparent KD of MS2 coat protein: 76.6 nM

## CGAUGAGGAGUGAGGAUAUCGUGUUCGAAAGAACGUGAGAAGGCACAUGAGGAUCACCCAUGUGAACCUUGUCG [Omei Ex4B A10] (Eterna round: R97, puzzle: Brourd's mod of Exclusion 4)
Input ligand: FMN 200 uM
  apparent KD of MS2 coat protein: 22.5 nM
Input ligand: none
  apparent KD of MS2 coat protein: 15.8 nM

## CUUUUGUGAGGAUAUCAGUAGUAAAAAAAUUAAAUUACUACUGAGAAGGCACAUGAGGAUCACCCAUGUUCCUC [salish99_ex4_r3_022] (puzzle: Exclusion 4)
[1]
  apparent KD of MS2 coat protein: 36.4 nM

## UGUGUGUUUGUGAGGAUAUUGUGUGUGAAAGCGCGCGAGAAGGCACAUGAGGAUCACCCAUGUAAGGGCGCGCG [-26, -24 kcal, A 23%, 6bis-6] (Eterna round: R97, puzzle: Brourd's mod of Exclusion 4)
Input ligand: FMN 200 uM
  apparent KD of MS2 coat protein: 20.2 nM
Input ligand: none
  apparent KD of MS2 coat protein: 23 nM

## UAAAUGUCAGGAUAUUGUUAAUUUAGUUGUUUGUAUUAGUUCGAGAAGGGACAUGAGGAUCACCCAUGUUAAAU [Ex4 #53] (Eterna round: R97, puzzle: Exclusion 4)
Input ligand: FMN 200 uM
  apparent KD of MS2 coat protein: 45.9 nM
Input ligand: none
  apparent KD of MS2 coat protein: 30.4 nM

## AAGUGACAUGAGGAUCACCCAUGUCAGGAUAUGCGCCGCUUACGCCUAAGUGUAGGGAGCAGAAGGGACAUAGA [EX1 B.2] (Eterna round: R97, puzzle: Exclusion 1)
Input ligand: FMN 200 uM
  apparent KD of MS2 coat protein: 30.5 nM
Input ligand: none
  apparent KD of MS2 coat protein: 25.7 nM

## AACUGGACAGGAUAUGUUCUUGAGCACUUGAGGAUCACCCAAGUCAUCAAGAACUCAGGCACAGAAGGGUUUAUGU [salish99_ex5_r4_002] (Eterna round: R97, puzzle: Exclusion 5)
Input ligand: FMN 200 uM
  apparent KD of MS2 coat protein: 45.9 nM
Input ligand: none
  apparent KD of MS2 coat protein: 13.6 nM
